T1: HisH (glutaminase subunit of Imidazole Glycerol Phosphate Synthase) from Thermotoga maritima (Thermotoga maritima, UniProt Q9X0C8 1-201)
T1 construct: HisH, Thermotoga maritima; cloned NdeI/XhoI into pET28a; No removal of the His-tag is described; source: bacteria transformed with pET28a, purified (70°C heat step, Ni-NTA agarose)
T1 sequence: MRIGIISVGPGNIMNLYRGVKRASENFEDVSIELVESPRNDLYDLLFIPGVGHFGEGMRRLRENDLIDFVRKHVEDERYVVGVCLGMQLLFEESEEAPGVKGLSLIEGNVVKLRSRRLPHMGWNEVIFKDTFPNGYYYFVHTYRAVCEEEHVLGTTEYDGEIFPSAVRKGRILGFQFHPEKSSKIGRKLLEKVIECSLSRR


biological target: T1, HisH (glutaminase subunit of Imidazole …); experiment: other fluorescence titration; intrinsic tryptophan fluorescence; 15 uM HisH mixed with sub-stoichiometric HisF (1 to 5 uM); 20 mM potassium phosphate pH 7.5; excitation 295 nm, difference spectra read at 321 nm; fluorescence as proxy of concentrations; 30°C; conditions: both partners purified

Row | Binder | fold increase of Kd against wild-type HisF [fold]
1 | HisF E167A (enzyme, Thermotoga maritima, HisF, Thermotoga maritima, with the single mutation E167A; parent is the HisF of m1; probably as the His-tagged wild-type HisF; also called mutant HisF) MLAKRIIACLDVKDGRVVKGTNFENLRDSGDPVELGKFYSEIGIDELVFLDITASVEKRKTMLELVEKVAEQIDIPFTVGGGIHDFETASELILRGADKVSINTAAVENPSLITQIAQTFGSQAVVVAIDAKRVDGEFMVFTYSGKKNTGILLRDWVVEVEKRGAGAILLTSIDRDGTKSGYDTEMIRFVRPLTTLPIIASGGAGKMEHFLEAFLAGADAALAASVFHFREIDVRELKEYLKKHGVNVRLEGL | 10
2 | HisF F210A (enzyme, Thermotoga maritima, HisF, Thermotoga maritima, with the single mutation F210A; parent is the HisF of m1; probably as the His-tagged wild-type HisF; also called mutant HisF) MLAKRIIACLDVKDGRVVKGTNFENLRDSGDPVELGKFYSEIGIDELVFLDITASVEKRKTMLELVEKVAEQIDIPFTVGGGIHDFETASELILRGADKVSINTAAVENPSLITQIAQTFGSQAVVVAIDAKRVDGEFMVFTYSGKKNTGILLRDWVVEVEKRGAGEILLTSIDRDGTKSGYDTEMIRFVRPLTTLPIIASGGAGKMEHALEAFLAGADAALAASVFHFREIDVRELKEYLKKHGVNVRLEGL | ~3
3 | HisF K13A (enzyme, Thermotoga maritima, HisF, Thermotoga maritima, with the single mutation K13A; parent is the HisF of m1; probably as the His-tagged wild-type HisF; also called mutant HisF) MLAKRIIACLDVADGRVVKGTNFENLRDSGDPVELGKFYSEIGIDELVFLDITASVEKRKTMLELVEKVAEQIDIPFTVGGGIHDFETASELILRGADKVSINTAAVENPSLITQIAQTFGSQAVVVAIDAKRVDGEFMVFTYSGKKNTGILLRDWVVEVEKRGAGEILLTSIDRDGTKSGYDTEMIRFVRPLTTLPIIASGGAGKMEHFLEAFLAGADAALAASVFHFREIDVRELKEYLKKHGVNVRLEGL | ~3
4 | HisF L169A (enzyme, Thermotoga maritima, HisF, Thermotoga maritima, with the single mutation L169A; parent is the HisF of m1; probably as the His-tagged wild-type HisF; also called mutant HisF) MLAKRIIACLDVKDGRVVKGTNFENLRDSGDPVELGKFYSEIGIDELVFLDITASVEKRKTMLELVEKVAEQIDIPFTVGGGIHDFETASELILRGADKVSINTAAVENPSLITQIAQTFGSQAVVVAIDAKRVDGEFMVFTYSGKKNTGILLRDWVVEVEKRGAGEIALTSIDRDGTKSGYDTEMIRFVRPLTTLPIIASGGAGKMEHFLEAFLAGADAALAASVFHFREIDVRELKEYLKKHGVNVRLEGL | ~3

Source: publication PMC9032424 (PLoS ONE, 2022)
